Laboratory results as given in patent publication US20200155661A1 (LENTIGEN TECHNOLOGY, published 2020).
Where a chain is given by its changes, count along the chain named.

B1: CD22-specific binder (scFv1) 16P (scFv)
scFv: QVQLQQSGPGLVKPSQTLSLTCAISGDSVSSNSAAWNWIRQSPSRGLEWLGRTYYRSKWYNDYAVSVKSRITINPDTSKNQFSLQLNSVTPEDTAVYYCAQEVQPHDAFDIWGQGTMVTVSSGGGGSGGGGSGGGGSDIQMTQSPSSVSASVGDKVTITCRASQDVSGWLAWYQQKPGLAPQLLIFGASTLQGEVPSRFSGSGSGTDFTLTISSLQPEDFATYYCQQAKNFPYTFGQGTKLEIKR
notes: also called founder clone
B2: CD22-specific binder (scFv18) 16P15 (scFv)
scFv: QVQLQQSGPGLVKPSQTLSLTCAISGDSVSSNSAAWNWIRQSPSRGLEWLGRTYYRSKWYNDYAVSVKSRITINPDTSKNQFSLQLNSVTPEDTAVYYCAQEVEPHDALDIWGQGTMVTVSSGGGGSGGGGSGGGGSDIQMTQSPSSVSASVGDKVTITCRASQDVSGWLAWYQQKPGLAPQLLIFGASTLQGEVPSRFSGSGSGTDFTLTISSLQPEDFATYYCQQAKYFPYTFGQGTKLEIK
B3: CD22-specific binder (scFv8) 16P20 (scFv)
scFv: B2 scFv
B4: CD22-specific binder (scFv11) 16P10 (scFv)
scFv: B2 scFv with H106Q, L109F, Q237P
B5: CD22-specific binder (scFv6) 16P3 (scFv)
scFv: B2 scFv with V2I, E104Q, H106D, F186S, Y230N
B6: CD22-specific binder (scFv7) 16P16 (scFv)
scFv: B2 scFv with S78F, Q140K
B7: CD22-specific binder (scFv13) 16P20v2 (scFv)
scFv: B2 scFv with E104Q, H106D, L109F, F186S, Y230N
B8: CD22-specific binder (scFv12) 16P17 (scFv)
scFv: B2 scFv with P14H, L109F, S149Y, F186S
B9: CD22-specific binder (scFv17) 16P13 (scFv)
scFv: B2 scFv with D27N, H106Q, L109F, S202G
B10: CD22-specific binder (scFv16) 16P8 (scFv)
scFv: B2 scFv with N61T, S69N, H106Q, L109F, Q237R
B11: CD22-specific binder (scFv14) 16P1 (scFv)
scFv: B2 scFv with A23D, V103I, L109F, G113D, D138V, F186S, T190S, E194G
B12: CD22-specific binder (scFv9) 16P2 (scFv)
scFv: B2 scFv with S78F, Q140K
B13: CD22-specific binder (scFv15) 16P3v2 (scFv)
scFv: B2 scFv with P14H, T21A, E104Q, H106Q, S147F, T157I, F186S
B14: CD22-specific binder (scFv10) 16P6 (scFv)
scFv: B2 scFv with E104Q, H106D, L109F, V118I, F186S, E194G, Y230N
B15: CD22-specific binder (scFv5) 12s (scFv)
scFv: QVQLQQSGPGLVKPSQTLSLTCAISGDSVSSNSAAWNWIRQSPSRGLEWLGRTYYRSKWYNDYAVSVKSRITINPDTSKNQFSLQLNSVTPEDTAVYYCAREGDDALDIWGQGTMVTVSSGGGGSGGGGSGGGGSDIQMTQSPSSLSASVGDRVTITCRASQSISHFLNWYQQKPGTAPKLLITTASGLGSGVPSRFSGSGSGTDFTLTINSLQPEDLATYYCQQSYTTPLTFGGGTKLEIKR
B16: CD22-specific binder (scFv3) 25P (scFv)
scFv: QVQLQQSGPGLVKPSQTLSLTCAISGDSVSSNSAAWNWIRQSPSRGLEWLGRTYYRSKWYNDYAVSVKSRITINPDTSKNQFSLQLNSLTPEDTAVYYCAREHQNEAAFDIWGQGTMVTVSSGGGGSGGGGSGGGGSQSVLTQPPSASGTPGQRVTISCSGGGSNIGTNTASWYQQLPGTAPKLLIYRNTQRPSGIPDRFSGSKSGTSASLAISGLQSEDEADYYCAAWDDSLNGYVFGAGTQLTVLG
notes: Lambda light chain

Each binder was assayed against T1, recombinant human CD22 (labeled CD22 used in flow cytometry of yeast) (human, UniProt P20273 20-687, limits assumed, fluorescent label, not specified) (assay: flow cytometry of yeast-displayed scFv with decreasing amounts of labeled CD22).
T1 construct: also called fluorescently tagged antigen
Description: After electroporation, the resulting mutant library was then grown overnight at 30° C. for 16 hours in SDCAA medium and then switched into SGCAA medium at 30° C. for another 16 hours. The mutant library was then sorted through MACS (immunomagentic column, Miltenyi Biotec) with CD22-Fc as the capture antigen to downsize the library and to increase the population of mutants that could bind to CD22-Fc. The strongest binders were then selected by double staining the pools with Anti-c-Myc-Alexa 488 and […]/Anti-Hu-Fc and selecting for the binders that had the highest binding affinities as well as c-Myc expression levels. […] Binding affinities were estimated by flow cytometry of yeast pools using decreasing amounts of labeled CD22.

| EC50 [µg/mL] | Binder |
| --- | --- |
| 0.5 | B1 |
| < 0.01 | B2 |
| < 0.01 | B3 |
| < 0.01 | B4 |
| < 0.01 | B5 |
| < 0.01 | B6 |
| < 0.01 | B7 |
| < 0.01 | B8 |
| < 0.01 | B9 |
| < 0.01 | B10 |
| < 0.01 | B11 |
| < 0.01 | B12 |
| < 0.01 | B13 |
| < 0.01 | B14 |

These binders were tested against T2, CD22 expressed on cells (CHOK1-CD22, K562-CD22, Raji, Reh) (human, UniProt P20273 20-847) (assay: yeast display cell panning on CHOK1 cells transfected with CD22).
T2 construct: whole, on cells; also called SIGLEC-2; Leu14
Description: The same ScFv starting material as for phage display was also incorporated into a yeast ScFv display system. To supplement phage-based scFv analysis, yeast libraries expressing the human scFv library were also screened. To enrich the yeast expressing scFvs that bind to both the recombinant CD22-Fc and the […] expressed on the cell surface of the CHOK1 cells, cell panning on CHOK1 transfected with CD22 cells was performed. For the first round of panning on the cell surface, two days prior to panning, the CHOK1-CD22 cells were seeded into 6-well plates and grown to 50% confluency in F12 K medium. 5×10⁷ yeast cells were then washed 2× with PBSA buffer and resuspended into 3 mL F12 K medium, and then gently added dropwise to the CHOK1-CD22 cells. […] The cell mix containing both the yeast and CHOK1 cells were then inoculated into 10 mL SDCAA medium and amplified overnight at 30° C. and then induced in SGCAA medium at 30° C. for 16 hours. For the second round of cell panning, a similar protocol as above was performed, but more stringent wash conditions were used. […] Binder sequences were incorporated into CART constructs as described in Example 2, infra, in a series of in vitro CART functional assays.

| binding result | Binder |
| --- | --- |
| binds | B15 |
| binds | B16 |
